Laboratory results from patent publication US11499162B2, “Plants having increased tolerance to herbicides” (BASF SE, priority 2016, dated 2022).
Numbering of substitutions follows the chain as printed. Numbers in names are those of the source.

B1: N70LQ71IL74A: mutated TriA variant of SEQ ID NO: 2 (protein)
chain: MQTLSIQHGTLVTMDQYRRVLGDSWVHVQDGRIVALGVHAESVPPPADRVIDARGKVVLPGFINAHTHVLIILARGGPSHGRQLYDWLFNVLYPGQKAMRPEDVAVAVRLYCAEAVRSGITTINDNADSAIYPGNIEAAMAVYGEVGVRVVYARMFFDRMDGRIQGYVDALKARSPQVELCSIMEETAVAKDRITALSDQYHGTAGGRISVWPAPAITPAVTVEGMRWAQAFARDRAVMWTLHMAESDHDERLHWMSPAEYMECYGLLDERLQVAHCVYFDRKDVRLLHRHNVKVASQVVSNAYLGSGVAPVPEMVERGMAVGIGTDDGNCNDSVNMIGDMKFMAHIHRAVHRDADVLTPEKILEMATIDGARSLGMDHEIGSIETGKRADLILLDLRHPQTTPHHHLAATIVFQAYGNEVDTVLIDGNVVMENRRLSFLPPERELAFLEEAQSRATAILQRANMVANPAWRSL
modifications: Pseudomonas
B2: I217S: mutated TriA variant of SEQ ID NO: 2 (protein)
chain: B1 chain with L70N, I71Q, A74L, I217S
modifications: Pseudomonas
B3: N126S: mutated TriA variant of SEQ ID NO: 2 (protein)
chain: B1 chain with L70N, I71Q, A74L, N126S
modifications: Pseudomonas
B4: A216G: mutated TriA variant of SEQ ID NO: 2 (protein)
chain: B1 chain with L70N, I71Q, A74L, A216G
modifications: Pseudomonas
B5: Q96E: mutated TriA variant of SEQ ID NO: 2 (protein)
chain: B1 chain with L70N, I71Q, A74L, Q96E
modifications: Pseudomonas
B6: M155E: mutated TriA variant of SEQ ID NO: 2 (protein)
chain: B1 chain with L70N, I71Q, A74L, M155E
modifications: Pseudomonas
B7: Q96N: mutated TriA variant of SEQ ID NO: 2 (protein)
chain: B1 chain with L70N, I71Q, A74L, Q96N
modifications: Pseudomonas
B8: D128A: mutated TriA variant of SEQ ID NO: 2 (protein)
chain: B1 chain with L70N, I71Q, A74L, D128A
modifications: Pseudomonas
B9: N126M: mutated TriA variant of SEQ ID NO: 2 (protein)
chain: B1 chain with L70N, I71Q, A74L, N126M
modifications: Pseudomonas
B10: Q96D: mutated TriA variant of SEQ ID NO: 2 (protein)
chain: B1 chain with L70N, I71Q, A74L, Q96D
modifications: Pseudomonas
B11: F157M: mutated TriA variant of SEQ ID NO: 2 (protein)
chain: B1 chain with L70N, I71Q, A74L, F157M
modifications: Pseudomonas
B12: D128N: mutated TriA variant of SEQ ID NO: 2 (protein)
chain: B1 chain with L70N, I71Q, A74L, D128N
modifications: Pseudomonas
B13: N126A: mutated TriA variant of SEQ ID NO: 2 (protein)
chain: B1 chain with L70N, I71Q, A74L, N126A
modifications: Pseudomonas
B14: Q96A: mutated TriA variant of SEQ ID NO: 2 (protein)
chain: B1 chain with L70N, I71Q, A74L, Q96A
modifications: Pseudomonas
B15: N126D: mutated TriA variant of SEQ ID NO: 2 (protein)
chain: B1 chain with L70N, I71Q, A74L, N126D
modifications: Pseudomonas
B16: R82G: mutated TriA variant of SEQ ID NO: 2 (protein)
chain: B1 chain with L70N, I71Q, A74L, R82G
modifications: Pseudomonas
B17: R82M: mutated TriA variant of SEQ ID NO: 2 (protein)
chain: B1 chain with L70N, I71Q, A74L, R82M
modifications: Pseudomonas
B18: M155G: mutated TriA variant of SEQ ID NO: 2 (protein)
chain: B1 chain with L70N, I71Q, A74L, M155G
modifications: Pseudomonas
B19: A216S: mutated TriA variant of SEQ ID NO: 2 (protein)
chain: B1 chain with L70N, I71Q, A74L, A216S
modifications: Pseudomonas
B20: D128S: mutated TriA variant of SEQ ID NO: 2 (protein)
chain: B1 chain with L70N, I71Q, A74L, D128S
modifications: Pseudomonas
B21: N70T: mutated TriA variant of SEQ ID NO: 2 (protein)
chain: B1 chain with L70T, I71Q, A74L
modifications: Pseudomonas
B22: R82L: mutated TriA variant of SEQ ID NO: 2 (protein)
chain: B1 chain with L70N, I71Q, A74L, R82L
modifications: Pseudomonas
B23: L88AY167I: mutated TriA variant of SEQ ID NO: 2 (protein)
chain: B1 chain with L70N, I71Q, A74L, L88A, Y167I
modifications: Pseudomonas
B24: M155A: mutated TriA variant of SEQ ID NO: 2 (protein)
chain: B1 chain with L70N, I71Q, A74L, M155A
modifications: Pseudomonas
B25: L841L88AY167I: mutated TriA variant of SEQ ID NO: 2 (protein)
chain: B1 chain with L70N, I71Q, A74L, L84I, L88A, Y167I
modifications: Pseudomonas
B26: F157A: mutated TriA variant of SEQ ID NO: 2 (protein)
chain: B1 chain with L70N, I71Q, A74L, F157A
modifications: Pseudomonas
B27: L84VL88AY167I: mutated TriA variant of SEQ ID NO: 2 (protein)
chain: B1 chain with L70N, I71Q, A74L, L84V, L88A, Y167I
modifications: Pseudomonas
B28: I217T: mutated TriA variant of SEQ ID NO: 2 (protein)
chain: B1 chain with L70N, I71Q, A74L, I217T
modifications: Pseudomonas
B29: I217A: mutated TriA variant of SEQ ID NO: 2 (protein)
chain: B1 chain with L70N, I71Q, A74L, I217A
modifications: Pseudomonas

Format: biochemical
Details: pH 7.2
Summary of the method: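 E. coli resting cells expressing His-tagged TriA incubated with azines, melamine or atrazine. Enzyme in 25 mM sodium phosphate pH 7.2 at 30 °C, substrate 1–10 nM. Loss of parent and formation of OH-metabolite followed by UPLC-HR-MS; % degradation relative to empty-vector cells.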

Molecule | Degradation in % of 6-cyclopentyl-N4-(2,3,4,5,6-pentafluorophenyl)-1,3,5-triazine-2,4-diamine | Degradation in % of Melamine
B1 | 0% | 2%
B2 | 3% | 100%
B3 | 1% | 2%
B4 | 0% | 64%
B5 | 0% | 0%
B6 | 0% | 0%
B7 | 2% | 2%
B8 | 5% | 3%
B9 | 0% | 3%
B10 | 4% | 0%
B11 | 0% | 17%
B12 | 2% | 0%
B13 | 4% | 2%
B14 | 0% | 0%
B15 | 0% | 0%
B16 | 0% | 0%
B17 | 2% | 2%
B18 | 0% | 4%
B19 | 1% | 45%
B20 | 0% | 0%
B21 | 0% | 0%
B22 | 1% | 1%
B23 | 0% | 2%
B24 | 4% | 0%
B25 | 4% | 9%
B26 | 0% | 19%
B27 | 3% | 7%
B28 | 3% | 100%
B29 | 4% | 100%
